Test results from publication doi:10.1101/2021.03.11.435015.

Target: Myc-PUM1-R1147W (human) (UniProt Q14671)
Assay: co-IP

GST-CNOT1 (from UniProt A5YKK6 1-2376) (natural protein)
percent by which the interaction is diminished against Myc-PUM1-WT: 35%
